# Results as given in article PMC10318062 (Nature Communications, 2023).
# Changes are numbered by the printed parent chain.
# B1: COVA2-02 (antibody, V domains shown)
# VH: VQLQQESGPGLVKPSETLSLTCTVSGGSISSSSYYWGWIRQPPGKGLEWIGSIYYSGSTYYNPSLKSRVTISVDTSKNQFSLKLSSVTAADTAVYYCARRSTSRWGYYYMDVWGKGTRVTVSS
# VL: DIVMTQSPSSLSASVGDRVTITCRASQSISNYLNWYQQKPGKAPKLLLYAASDLQSGVPSRFSGSGSGTDFTLTISSLQPEDFATYYCQQSYSTHMSTFGQGTKVDIK
# B2: COVA2-16 (antibody, V domains shown)
# VH: QVQLVQSGAEVKKPGATVKISCKVSGYTFTDYYMHWVQQAPGKGLEWMGLVDPEDGETIYAEKFQGRVTITADTSTDTAYMELSSLRSEDTAVYYCASSDSSGFVGSRGFDYWGQGTRVTVSS
# VL: DIQLTQSPSSLSASVGDRVTITCRASQGIRNDLGWYQQKPGKAPKRLIYAASSLQSGVPSRFSGSGSGTEFTLTISSLQPEDFATYYCLQHNSYPPLFGQGTKVEIK
# B3: COVA2-20 (antibody, V domains shown)
# VH: EVQLVESGGGLIQPGGSLRLSCAASGFTVSSNYMSWVRQAPGKGLEWVSVIYSGGSTYYADSVKGRFTISRDNSKNTLYLQMNSLRAEDTAVYYCASPLLLTPPDYYYYMDVWGKGTMVTVSS
# VL: B2 VL with I2V, Q3V, L4M, A13V, P95L, P96W, L97T, V104L
# B4: COVA2-17 (antibody, V domains shown)
# VH: QVQLVESGAEVKKPGSSVKVSCKASGGTFSSYGINWVRQAPGQGLEWMGGIIPIFGTANYAQKFQGRVTITTDESTSTAYMELSSLRSEDTAVYYCASFGDDSGDEGVRWGQGTLVTVSS
# VL: EIVMTQSPATLSLSPGERATLSCRASQSVSSYLAWYQQKPGQAPRLLIYDASNRATGIPARFSGSGSGTDFTLTISSLEPEDFAVYYCQQRSNWPPYTFGQGTKVEIK
# B5: COVA2-15 (antibody, V domains shown)
# VH: QVQLLESGGGLVQPGGSLRLSCAASGFTFSSYAMSWVRQAPGKGLEWASAISGSGGSTYYADSVEGRFTISRDNSKNTLYLQMNSLRAEDTAVYYCAKDTGYCGDDCYIKLIRGGPDYWGQGTLVTVSS
# VL: DIVMTQSPLSLPVTLGQPASISCRSSQSLVYSDGNTFLNWFQQRPGQSPRRLIYQVSNRDSGVPDRFSGSGSGTDFTLKISRVEAEDVGVYYCMQGTHWPRTFGQGTKLEIK
# B6: CB6 (sdFab) (Fab, V domains shown)
# VH: EVQLVESGGGLVQPGGSLRLSCAASGFTVSSNYMSWVRQAPGKGLEWVSVIYSGGSTFYADSVKGRFTISRDNSMNTLFLQMNSLRAEDTAVYYCARVLPMYGDYLDYWGQGTLVTVSS
# VL: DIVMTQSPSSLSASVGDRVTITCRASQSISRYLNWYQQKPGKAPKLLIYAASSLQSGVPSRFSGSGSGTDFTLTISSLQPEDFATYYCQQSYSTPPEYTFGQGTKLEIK
# B7: REGN10933 (sdFab) (Fab, V domains shown)
# VH: QVQLVESGGGLVKPGGSLRLSCAASGFTFSDYYMSWIRQAPGKGLEWVSYITYSGSTIYYADSVKGRFTISRDNAKSSLYLQMNSLRAEDTAVYYCARDRGTTMVPFDYWGQGTLVTVSS
# VL: DIQMTQSPSSLSASVGDRVTITCQASQDITNYLNWYQQKPGKAPKLLIYAASNLETGVPSRFSGSGSGTDFTFTISGLQPEDIATYYCQQYDNLPLTFGGGTKVEIK
# B8: AZD8895 (sdFab) (Fab, V domains shown)
# VH: EVQLVQSGPEVKKPGTSVKVSCKASGFTFMSSAVQWVRQARGQRLEWIGWIVIGSGNTNYAQKFQERVTITRDMSTSTAYMELSSLRSEDTAVYYCAAPYCSSISCNDGFDIWGQGTMVTVSS
# VL: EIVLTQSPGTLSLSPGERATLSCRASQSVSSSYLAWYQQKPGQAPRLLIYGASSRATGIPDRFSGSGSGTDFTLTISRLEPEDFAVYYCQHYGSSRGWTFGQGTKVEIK
# B9: LY-CoV1404 (sdFab) (Fab, V domains shown)
# VH: QITLKESGPTLVKPTQTLTLTCTFSGFSLSISGVGVGWLRQPPGKALEWLALIYWDDDKRYSPSLKSRLTISKDTSKNQVVLKMTNIDPVDTATYYCAHHSISTIFDHWGQGTLVTVSS
# VL: QSALTQPASVSGSPGQSITISCTATSSDVGDYNYVSWYQQHPGKAPKLMIFEVSDRPSGISNRFSGSKSGNTASLTISGLQAEDEADYYCSSYTTSSAVFGGGTKLTVL
# B10: REGN10987 (sdFab) (Fab, V domains shown)
# VH: QVQLVESGGGVVQPGRSLRLSCAASGFTFSNYAMYWVRQAPGKGLEWVAVISYDGSNKYYADSVKGRFTISRDNSKNTLYLQMNSLRTEDTAVYYCASGSDYGDYLLVYWGQGTLVTVSS
# VL: QSALTQPASVSGSPGQSITISCTGTSSDVGGYNYVSWYQQHPGKAPKLMIYDVSKRPSGVSNRFSGSKSGNTASLTISGLQSEDEADYYCNSLTSISTWVFGGGTKLTVL
# B11: LY-CoV555 (sdFab) (Fab, V domains shown)
# VH: QVQLVQSGAEVKKPGSSVKVSCKASGGTFSNYAISWVRQAPGQGLEWMGRIIPILGIANYAQKFQGRVTITADKSTSTAYMELSSLRSEDTAVYYCARGYYEARHYYYYYAMDVWGQGTAVTVSS
# VL: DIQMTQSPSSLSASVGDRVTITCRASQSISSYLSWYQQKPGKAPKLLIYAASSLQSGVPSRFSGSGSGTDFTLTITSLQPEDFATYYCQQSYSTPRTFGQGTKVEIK
# B12: S2P6 (sdFab) (Fab, V domains shown)
# VH: EVQLVQSGAEVKKPGASVKVSCKASGYTFTSQYMHWVRQAPGQGLEWIGIINPSGVHTSYAQKFQGRVTLTRDTSTSTLYMELSSLRSEDTAVYYCARGSPKGAFDYWGQGTLVTVSS
# VL: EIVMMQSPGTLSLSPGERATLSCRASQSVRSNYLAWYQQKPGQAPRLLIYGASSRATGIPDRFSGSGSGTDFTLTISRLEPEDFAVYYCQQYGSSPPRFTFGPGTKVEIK
# Target: T1, SARS-CoV-2 Receptor Binding Domain (RBD) (SARS-CoV-2, UniProt P0DTC2)
# Assay: not given
# Conditions: not given
row,Binder,binding result
1,B1,binds
2,B2,binds
3,B3,binds
4,B4,binds
5,B5,binds

# Target: SARS-CoV-2 hexaproline stabilized pre-fusion spike glycoprotein (S6P) (SARS-CoV-2, ancestral (Wuhan-Hu-1 …, UniProt P0DTC2, stabilised))
# Assay: not given
# Conditions: not given
row,Binder,binding result
1,B1,binds
2,B2,binds
3,B3,binds
4,B4,binds
5,B5,binds

# Target: T1, SARS-CoV-2 Receptor Binding Domain (RBD)
# Assay: AlphaScreen or HTRF
# Conditions: one partner purified
row,Binder,binding result
1,B6,binds
2,B7,binds
3,B8,binds
4,B9,binds
5,B10,binds
6,B11,binds

# Target: HCoV-OC43 S (HCoV-OC43, strain ; reference …, UniProt P36334)
# Sequence (P36334 14-1353): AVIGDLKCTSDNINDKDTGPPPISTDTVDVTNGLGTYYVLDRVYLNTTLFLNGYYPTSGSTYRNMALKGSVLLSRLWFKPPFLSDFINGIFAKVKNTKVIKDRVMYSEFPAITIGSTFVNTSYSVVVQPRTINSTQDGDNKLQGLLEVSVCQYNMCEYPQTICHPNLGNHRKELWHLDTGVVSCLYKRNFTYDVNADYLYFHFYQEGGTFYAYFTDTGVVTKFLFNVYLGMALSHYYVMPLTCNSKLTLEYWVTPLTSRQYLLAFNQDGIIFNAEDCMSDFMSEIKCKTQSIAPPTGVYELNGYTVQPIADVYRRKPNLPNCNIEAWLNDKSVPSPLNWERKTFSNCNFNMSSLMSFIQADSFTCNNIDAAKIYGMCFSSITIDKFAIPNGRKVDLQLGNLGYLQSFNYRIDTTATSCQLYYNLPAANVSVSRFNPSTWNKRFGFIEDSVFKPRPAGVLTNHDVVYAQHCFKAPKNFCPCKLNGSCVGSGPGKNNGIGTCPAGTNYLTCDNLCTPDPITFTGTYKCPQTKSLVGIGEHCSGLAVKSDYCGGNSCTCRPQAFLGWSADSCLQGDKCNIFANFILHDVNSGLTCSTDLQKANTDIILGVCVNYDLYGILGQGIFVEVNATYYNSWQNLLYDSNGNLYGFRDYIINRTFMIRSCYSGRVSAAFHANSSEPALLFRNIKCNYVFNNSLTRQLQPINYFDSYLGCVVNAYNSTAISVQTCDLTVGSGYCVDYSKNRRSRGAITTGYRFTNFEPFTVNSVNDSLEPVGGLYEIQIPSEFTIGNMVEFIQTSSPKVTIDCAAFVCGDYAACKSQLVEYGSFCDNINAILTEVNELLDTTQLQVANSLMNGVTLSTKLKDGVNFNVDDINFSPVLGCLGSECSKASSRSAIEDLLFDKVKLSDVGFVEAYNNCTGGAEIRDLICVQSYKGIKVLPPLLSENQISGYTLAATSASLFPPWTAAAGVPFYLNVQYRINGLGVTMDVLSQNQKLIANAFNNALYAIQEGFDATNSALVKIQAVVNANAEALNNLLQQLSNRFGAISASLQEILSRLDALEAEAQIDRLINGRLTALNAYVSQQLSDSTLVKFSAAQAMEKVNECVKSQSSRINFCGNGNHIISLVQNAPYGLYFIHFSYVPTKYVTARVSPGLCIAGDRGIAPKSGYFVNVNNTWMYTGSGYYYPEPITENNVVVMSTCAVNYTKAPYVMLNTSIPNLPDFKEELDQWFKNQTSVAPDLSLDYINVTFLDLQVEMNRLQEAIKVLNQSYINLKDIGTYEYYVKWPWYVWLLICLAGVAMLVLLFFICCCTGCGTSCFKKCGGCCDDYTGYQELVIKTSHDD
# Assay: AlphaScreen or HTRF
# Conditions: one partner purified
row,Binder,binding result
1,B12,binds
